Test results from patent publication US12110325B2, “TM4SF5-targeting humanized antibody and use thereof” (KOREA RESEARCH INSTITUTE OF BIOSCIENCE AND BIOTECHNOLOGY, priority 2022, dated 2024).

Legend:
[1] = tested on: sorafenib-resistant SNU449T7 cells; experiment: Sorafenib-resistant SNU449T7 cell xenograft model; type: in vivo, mouse
Description: SNU449T7 cells were treated with sorafenib (1 μM to 10 μM) for 2 weeks, and the surviving cells (sorafenib-resistant SNU449T7; 1×10^6 cells) were mixed with Matrigel on ice and then injected subcutaneously into the backs of the mice. After 11 days, when tumor volumes reached about 100 mm^3, the tumor-bearing mice were randomized into control and treatment groups (n=7 per group). Ab27 (250 μg/mouse) or sorafenib (400 μg/mouse) was intraperitoneally (i.p.) injected at 2- or 3-day intervals for 2 or 3 weeks (8 times in total).
(§1) Body weight and tumor volume were measured before injection of the antibody or drug. Tumor volumes were calculated using the formula width^2×length/2). Tumor masses were lysed as described in the literature for immunoblot analysis (J Clin Invest, 2008. 118 (4): pp. 1354-66) or tumor masses were fixed in 10% formalin and embedded in paraffin.
The antitumor activity of Ab27 was evaluated in a sorafenib-resistant SNU449T7 cell xenograft model. TM4SF5-overexpressing SNU449T7 cells were treated with sorafenib (1 μM to 10 μM; 3 culture medium changes per week) for 3 weeks, and the surviving sorafenib-resistant cells (1×10^6) were mixed with Matrigel and then subcutaneously injected into the flanks of the nude mice. Ab27 (250 μg/mouse) or sorafenib (400 μg/mouse) was injected at 2- or 3-day intervals (8 times in total).

SNU449T7 cells [2] = experiment: Combination treatment in SNU449T7 xenograft mouse model; type: in vivo; details: for inhibited tumor growth relative to the control: Ab27 270, sorafenib 1,200, doxorubicin 20 μg/mouse/dose i.p. twice per week, 6 times in total, alone or combined
Description: For combination treatment, SNU449T7 (1×10^6) cells were subcutaneously injected into the mice. When volumes reached about 100 mm^3, the tumor-bearing mice were randomized into control and treatment groups (n=6 per group). Ab27 (270 μg/mouse), sorafenib (1,200 μg/mouse), or doxorubicin (20 μg/mouse) was intraperitoneally (i.p.) injected twice per week (6 times in total). For the combination treatment group, Ab27 and sorafenib or doxorubicin were intraperitoneally (i.p.) injected at 6-hour intervals. Sorafenib was dissolved in DMSO/Cremophor EL/PBS (1:1:8).
as §1
SNU449T7 (1×10^6) cells were mixed with Matrigel and subcutaneously injected into the back, and then Ab27 (270 μg/mouse/dose); sorafenib (1,200 μg/mouse/dose); doxorubicin (20 μg/mouse/dose); a combination of Ab27 (270 μg/mouse/dose) and sorafenib (1,200 μg/mouse/dose) or a combination of doxorubicin (20 μg/mouse/dose); or saline (control) were intraperitoneally injected twice per week (6 times in total) into nude mice (n=6 per group) bearing SNU449T7 xenografts.

SNU-398 cells = experiment: SNU-398 liver cancer xenograft (endogenous TM4SF5); type: in vivo; details: Ab27 300, cetuximab 300 or sorafenib 600 μg/mouse/dose
Description: as §1
(§2) Formalin-fixed and paraffin-embedded 6-μm-thick tissue sections from xenograft tumors were processed for immunohistochemistry analysis as per the standard protocol. Sections were stained with anti-Ki67 antibody (SP6; Abcam) using the peroxidase technique. The proliferative index (%) was determined by calculating the number of Ki67^+ cells relative to the total number of cells, which consisted of at least 1,000 cells per field. Five randomly selected fields from tumor sections per mouse were analyzed using ImageJ software.

[3] = tested on: SNU449Tp cell-derived tumors; experiment: In vivo tumor targeting, DyLight 755-labeled antibody, SNU449T7 xenograft; design: species or system mouse; details: DyLight 755 label, 96 hours after injection; control IgG mostly in the liver
Description: (§3) Ab27, Ab27-hz9, and normal human IgG were conjugated with DyLight 755 and purified using a DyLight 755 Antibody Labeling Kit (Thermo Scientific) according to the manufacturer's instructions. When the size of the tumor formed by SNU449T7 or SNU-398 cell reached about 100 mm^3, 70 μg of dye-labeled antibody was injected into the tail vein of nude mice. The distribution profiles of the antibody were quantified by in vivo fluorescence using IVIS imaging system at 0, 24, 48, 72, and 96 hours after antibody injection. The tumor was removed at 96 hours after injection to determine the distribution of the DyLight755-labeled antibody in tumor tissues.
In order to validate the tumor-targeting ability of anti-TM4SF5 antibodies, the distributions of Ab27 and Ab27-hz9 after injection into SNU449Tp xenograft model were determined. SNU449T7 cells were subcutaneously injected into the flanks of the nude mice so as to prepare mice bearing tumors. Ab27, Ab27-hz9, and control human IgG were labeled with a fluorescent dye (DyLight 755) and […] injected into nude mice bearing SNU449Tp cell-derived tumors. After 96 hours, the distribution of the dye-labeled antibody was quantified by measuring the total photon flux of the fluorescence.

SNU449T7 cells [4] = experiment: SNU449T7 liver cancer xenograft, Ab27-hz9 versus Ab27 and cetuximab; type: in vivo, mouse
Description: SNU449T7 (1×10^7) cells were subcutaneously injected into the flanks of mice. When volumes reached about 100 mm^3, the tumor-bearing mice were randomized into control and treatment groups (n=6 per group). […] Normal human IgG was injected as a negative control.
as §1, §2
The antitumor efficacy of Ab27-hz9 was evaluated in the SNU449T7 xenograft model. SNU449T7 cells (3×10^6) were subcutaneously injected into the flanks of mice.

TM4SF5 [5] = molecular target: T1, TM4SF5 (Homo sapiens, UniProt O14894); experiment: Immunocytochemistry of SNU449Cp and SNU449Tp cells; type: cell-based; details: SNU449Tp versus SNU449Cp; Ab27-hz9 with a stronger level
T1 construct: expressed in transfected cells; SNU449Cp (TM4SF5-low control)
T1 sequence (O14894 1-197): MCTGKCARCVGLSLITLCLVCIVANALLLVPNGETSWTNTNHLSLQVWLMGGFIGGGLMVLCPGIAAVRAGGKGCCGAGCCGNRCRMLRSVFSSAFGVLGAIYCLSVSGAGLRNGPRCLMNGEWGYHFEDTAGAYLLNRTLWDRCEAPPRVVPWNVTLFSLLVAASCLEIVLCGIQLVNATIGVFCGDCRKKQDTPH
Description: SNU-449Cp, SNU-449Tp, and HepG2 and HT-29 cells that had been transiently transfected with TM4SF5-specific siRNA were plated on coverslips and incubated for 48 hours. The cells were then fixed for 20 minutes in methanol and permeabilized with acetone for 1 minute. After blocking in 1% normal horse serum, the cells were incubated with Ab27 or Ab27-hz9 ([…]), followed by a corresponding secondary antibody conjugated to FITC. The cells were counterstained with 4,6-diamidino-2-phenylindole (DAPI; Sigma) to visualize nuclei. Immunofluorescent images were acquired under a confocal microscope (LSM 510 META, Carl Zeiss, Jena, Germany).

TM4SF5 [6] = molecular target: T1, TM4SF5; experiment: Internalization analysis of SNU449Tp cells by flow cytometry; type: cell-based; details: Ab27 0.3 μg/mL, Ab27-hz9 0.2 μg/mL
Description: Cell-surface binding and subsequent internalization of Ab27 and Ab27-hz9 were analyzed using flow cytometry. Briefly, cells were incubated with Ab27 or Ab27-hz9 at 4° C. for 45 minutes, washed to remove unbound antibodies, and then either warmed to 37° C. to allow internalization or maintained at 4° C. Cells were transferred to ice-cold buffer to stop the occurrence of internalization and stained with FITC-conjugated anti-human IgG. PI^− cells were analyzed by flow cytometry. The relative levels of Ab27 or Ab27-hz9 bound to the cell surface were calculated as the shift in the fluorescence signal of the antibody occupancy relative to that detected at the beginning of the internalization period.
For the internalization analysis of SNU449Tp cells with Ab27 and Ab27-hz9, Ab27 (0.3 μg/mL) and Ab27-hz9 (0.2 μg/mL) were used to maintain a similar extent of initial antibody binding to TM4SF5.

[7] = tested on: endogenous TM4SF5-expressing tumors; experiment: In vivo tumor targeting, DyLight 755-labeled antibody, SNU-398 xenograft; design: species or system mouse; details: DyLight 755 label, tail vein, 96 hours; control IgG mostly in the liver
Description: as §3
Additionally, in vivo tumor targeting of Ab27 and Ab27-hz9 were examined using a SNU-398 xenograft mouse model. To confirm in vivo tumor targeting of Ab27 and Ab27-hz9 in endogenous TM4SF5-expressing liver cancer xenografts, SNU-398 cells were subcutaneously injected into the flanks of the nude mice so as to prepare mice bearing tumors. Ab27, Ab27-hz9, and control human IgG were labeled with DyLight 755 were injected into the tail veil of tumor-bearing mice, and fluorescence was measured after 96 hours.

TM4SF5 [8] = molecular target: T1, TM4SF5; experiment: Flow cytometry of SNU449Cp and SNU449Tp cells; type: cell-based
Description: To analyze antibody binding to TM4SF5, flow cytometry was performed using SNU449Cp, SNU449Tp, HEK293E, and CT26 cells. HCT-116, SNU-398, HT-29, C8161, and SNU-638 cells that had been transiently transfected with either a TM4SF5-specific siRNA or a negative control siRNA were also analyzed. Cells (2×10^5) were incubated with Ab27 or Ab27-hz9 at 0.03 μg to 0.3 μg at 4° C. for 45 minutes in 100 μL PBS containing 1% BSA. The cells were washed twice with 1% BSA/PBS, followed by a 30-minute incubation with fluorescein isothiocyanate (FITC)-conjugated anti-human IgG (Fc-specific; Pierce, Rockford, Ill., USA). Viable propidium iodide (PI)^− cells were analyzed for antibody binding using FACSCalibur (BD Immunocytometry System, San Jose, Calif., USA). To generate hemagglutinin (HA)-tagged mouse TM4SF5-expression vector, mouse TM4SF5 cDNA (Accession No. NM_029360.3) was subcloned into pCMV-HA-N vector (Clonetech, Mountain View, Calif.). PC3 cells transiently transfected with HA-tagged mouse TM4SF5-expression vector were incubated with Ab27 and anti-HA, and then analyzed by flow cytometry.

CNC(=O)c1cc(Oc2ccc(NC(=O)Nc3ccc(Cl)c(C(F)(F)F)c3)cc2)ccn1 [sorafenib]
immunoblot of xenograft tumor tissues: phosphorylation of FAK, c-Src, p27Kip1, STAT3 and expression of BMI1 ([1]; Ab27 250 μg/mouse or sorafenib 400 μg/mouse): relatively moderately decreased the phosphorylation of FAK, c-Src, p27^KiP1, and STAT3
tumor growth (in words) ([1]; sorafenib 400 μg/mouse/dose, 8 times in total): did not remarkably decrease tumor growth
inhibited tumor growth relative to the control (SNU449T7 cells [2]): 42%
phosphorylation of STAT3 in tumor lysates (SNU449T7 cells [2]; sorafenib 1,200 μg/mouse/dose): abolished the phosphorylation of STAT3
Ki67 proliferation index of tumor sections (SNU-398 cells): significantly decreased
inhibited tumor growth (tumor volume) (SNU-398 cells; 6 times in total, normal human IgG control): 51%

COc1cccc2c1C(=O)c1c(O)c3c(c(O)c1C2=O)C[C@@](O)(C(=O)CO)C[C@@H]3O[C@H]1C[C@H](N)[C@H](O)[C@H](C)O1 [doxorubicin]
inhibited tumor growth relative to the control (SNU449T7 cells [2]): 26%

B1: Ab27-hz9: humanized monoclonal antibody of Ab27; VH SEQ ID NO: 7, VL SEQ ID NO: 8; IGHV1-2 and IGKV3-20 frameworks (antibody, V domains shown)
VH: QVQLVQSGAEVKKPGASVKVSCKASGYTFTDYEMHWVRQAPGQGLEWMGAIDPETGGTAYNQKFKGRVTMTADKSISTAYMELSRLRSDDTAVYYCARPYLGYWGQGTLVTVSS
VL: EIVLTQSPGTLSLSPGERATLSCRSSQSLVHSNGNTYLHWYQQKPGQAPRLLIYKVSNRFSGIPDRFSGSGSGTDFTLTISRLEPEDFAVYYCFQGSHIPLTFGQGTKVEIK
modifications: VH; VL
notes: humanized monoclonal antibody of Ab27; IGHV1-2 and IGKV3-20 frameworks
distribution of dye-labeled antibody (total photon flux) [3]: predominantly localized to the tumors
level of proliferative Ki67+ cells in tumor sections versus control mice (SNU449T7 cells [4]; 300 μg/mouse/dose): significantly lower
inhibited tumor growth (tumor volume) (SNU449T7 cells [4]; 300 μg/mouse/dose i.p. 3 or 4 times per week, 12 times in total, normal human IgG control): about 66%
body weight (SNU449T7 cells [4]; 300 μg/mouse/dose, 12 times in total): without affecting body weight
immunofluorescence staining of membrane edges (TM4SF5 [5]): stained the membrane edges of SNU449Tp cells, but not those of SNU449Cp cells
residual level of cell surface-bound antibody (TM4SF5 [6]): significantly reduced
distribution of dye-labeled antibody (fluorescence) [7]: substantially localized in endogenous TM4SF5-expressing tumors
binding to SNU449Tp (high-TM4SF5) versus SNU449Cp (TM4SF5-low) cells (TM4SF5 [8]): bound more efficiently to SNU449Tp cells than to SNU449Cp cells
